Reference: publication PMC6191539, “NadA3 Structures Reveal Undecad Coiled Coils and LOX1 Binding Regions Competed by Meningococcus B Vaccine-Elicited Human Antibodies” (mBio, 2018)

Target: T1, full-length human LOX-1 fused to yellow fluorescent protein, expressed on CHO-K1 cells (human, UniProt P78380 1-273)
T1 construct: LOX-1 (low-density oxidized lipoprotein lectin-like receptor 1), human, full length, on transfected CHO-K1 cells; pEYFP-N1 usually places the YFP at the C-terminus of the insert (surmise); also called low-density oxidized lipoprotein lectin-like receptor 1; LOX-1-expressing cells; source: CHO-K1 cells, transiently transfected (pEYFP-N1 vector), on live cells
Assay: flow cytometry on cells; CHO-K1 cells transiently expressing human LOX-1-YFP mixed with NadA3 protein (200 µg/ml) for 30 min at 37°C; detected with mouse polyclonal anti-NadA3 and APC-conjugated secondary antibody
Settings: one partner purified

B1: NadA3 24–170 K68A K69A D70A mutant (domain or fragment)
chain: ATNDDDVKKAATVAIAAAYNNGQEINGFKAGETIYDIDEDGTITAAAATAADVEADDFKGLGLKKVVTNLTKTVNENKQNVDAKVKAAESEIEKLTTKLADTDAALADTDAALDATTNALNKLGENITTFAEETKTNIVKIDEKLEA
notes: NadA3, N. meningitidis serogroup B strain 2996, UniProt Q8KH85, residues 24-170 with K68A, K69A and D70A
  percent doubly positive cells (LOX-1 and NadA): 49.8%
